T1: Elk-ets (HA-tagged ETS domain) (UniProt P19419 5-86)
T1 sequence: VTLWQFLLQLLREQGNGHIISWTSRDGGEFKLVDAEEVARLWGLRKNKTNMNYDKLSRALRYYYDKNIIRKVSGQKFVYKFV

T2: ets-DM (HA-Elk-ets DNA-binding mutant) (UniProt P19419 5-86, R65A;Y66F)
T2 sequence: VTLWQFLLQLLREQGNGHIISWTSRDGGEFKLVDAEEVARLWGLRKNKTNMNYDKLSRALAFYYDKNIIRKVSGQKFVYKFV

T3: Elk-ΔA (UniProt P19419 1-253)
T3 sequence: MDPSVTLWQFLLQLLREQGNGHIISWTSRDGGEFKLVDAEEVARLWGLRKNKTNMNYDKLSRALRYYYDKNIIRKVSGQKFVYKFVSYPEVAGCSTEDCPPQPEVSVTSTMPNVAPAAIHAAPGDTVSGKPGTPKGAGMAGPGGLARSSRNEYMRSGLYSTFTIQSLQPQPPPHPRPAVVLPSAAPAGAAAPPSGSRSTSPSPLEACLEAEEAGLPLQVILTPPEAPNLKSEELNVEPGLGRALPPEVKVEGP


Key:
[1] = target: T1, Elk-ets (HA-tagged ETS domain); assay: native gel EMSA
[2] = target: T2, ets-DM (HA-Elk-ets DNA-binding mutant); assay: native gel EMSA
Elk-ΔA = target: T3, Elk-ΔA; assay: EMSA
[3] = target: PU.1-ets (HA-tagged ETS domain) (UniProt P17947 170-253); assay: EMSA
[4] = target: T1, Elk-ets (HA-tagged ETS domain); assay: EMSA

| Binder | binding result [1] | binding result [2] | binding result (Elk-ΔA) | binding result [3] | binding result [4] |
| --- | --- | --- | --- | --- | --- |
| CON control duplex (dsDNA) DNA 1: AGACCAACATGAATTACGACAGGCTCAGCCGGG DNA 2: CCCGGCTGAGCCTGTCGTAATTCATGTTGGTCT | no binding | – | – | – | – |
| E74 duplex (dsDNA) DNA 1: CTAGAGCTGAATAACCGGAAGTAACTCAT DNA 2: CTAGATGAGTTACTTCCGGTTATTCAGCT | – | no binding | binds | binds | binds |
